In US20240132626A1 (Eli Lilly, published 2024):
Values belong to the binder of their own block, whether it stands above or below them.

Assays:
Assay in all cases: SPR, captured via anti-human kappa, soluble ECD injected
[1] = molecular target: T1, Soluble human EGFR ECD protein (human, UniProt P00533 25-645)
T1 construct: extracellular domain; His-tagged

[2] = molecular target: T2, Soluble human HER-2 extracellular domain (ECD) protein (human, UniProt P04626 23-652)
T2 construct: extracellular domain; His-tagged

[3] = molecular target: T3, Soluble human cMet extracellular domain (ECD) protein (human, UniProt P08581 25-932)
T3 construct: extracellular domain; His-tagged
T3 sequence (P08581 25-932): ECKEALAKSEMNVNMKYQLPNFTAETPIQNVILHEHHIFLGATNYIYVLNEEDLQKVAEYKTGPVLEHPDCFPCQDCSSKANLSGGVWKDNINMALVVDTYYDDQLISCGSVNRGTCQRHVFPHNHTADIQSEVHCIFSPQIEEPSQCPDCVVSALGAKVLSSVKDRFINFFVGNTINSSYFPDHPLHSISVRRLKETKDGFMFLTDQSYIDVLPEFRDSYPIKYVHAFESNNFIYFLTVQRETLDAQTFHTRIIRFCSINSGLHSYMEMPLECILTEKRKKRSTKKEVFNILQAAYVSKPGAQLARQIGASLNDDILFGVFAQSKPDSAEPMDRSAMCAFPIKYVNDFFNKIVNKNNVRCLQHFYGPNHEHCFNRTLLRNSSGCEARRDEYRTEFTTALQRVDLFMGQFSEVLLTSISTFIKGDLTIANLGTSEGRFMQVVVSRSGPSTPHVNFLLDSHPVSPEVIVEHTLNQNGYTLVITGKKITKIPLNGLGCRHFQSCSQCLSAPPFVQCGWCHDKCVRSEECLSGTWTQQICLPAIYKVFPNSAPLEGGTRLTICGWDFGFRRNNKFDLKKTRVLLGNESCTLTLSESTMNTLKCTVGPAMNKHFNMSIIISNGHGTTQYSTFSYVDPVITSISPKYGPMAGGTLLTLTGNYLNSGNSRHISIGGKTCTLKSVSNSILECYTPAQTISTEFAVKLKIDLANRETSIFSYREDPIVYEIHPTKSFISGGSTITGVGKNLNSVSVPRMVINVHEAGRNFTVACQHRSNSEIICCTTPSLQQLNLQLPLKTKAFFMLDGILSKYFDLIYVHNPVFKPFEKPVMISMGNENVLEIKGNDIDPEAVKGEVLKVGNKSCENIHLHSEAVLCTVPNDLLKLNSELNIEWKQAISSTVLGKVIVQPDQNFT

Kd [1]: 15000 pM | koff [1]: 0.0055 s⁻¹ | kon [1]: 360000 M⁻¹ s⁻¹ | Kd [2]: 800 pM | koff [2]: 0.00022 s⁻¹ | kon [2]: 260000 M⁻¹ s⁻¹ | Kd [3]: 770 pM | koff [3]: 0.00013 s⁻¹ | kon [3]: 170000 M⁻¹ s⁻¹
B1: HER-2 X EGFR X cMet TsAb_HHH (other)
heavy: EVQLVESGGGLVQPGGSLRLSCAASGFTFTDYTMDWVRKAPGKGLEWVADVNPNSGGSIYNQEFKGRFTLSVDRSKNTLYLQMNSLRAEDTAVYYCARNLGPSFYFDYWGQGTLVTVSSASTKGPSVFPLAPSSKSTSGGTAALGCLVKDYFPEPVTVSWNSGALTSGVATGPAVLQSSGLYSLSSVVTVPSSSLGTQTYICNVNHKPSNTKVDKKVEPKSCGGGGSGGGGSGGGGSQVQLVQSGAEVKKPGASVKVSCKASGYTFTSHWMHWVRYAPGQGLEWIGEFNPSNGRTNYNEKFKSKATMTVDTSTNTAYMELSSLRSEDTAVYYCASRDYDYDGRYFDYWGQGTLVTVSSASTKGPSVFPLAPCSKSTSGGTAALGCLVKDYFPEPVTVSWNSGALTSGVHTFPAVLQSSGLYSLSSVVTVPSSSLGTQTYICNVNHKPSNTKVDKKVEPDSGGGGGSGGGGSGGGGSEVQLVESGGGLVQPGGSLRLSCAASGYTFTSYWLHWVRQAPGKGLEWVGMIDPSNSDTRFNPNFKDRFTISADTSKNTAYLQMNSLRAEDTAVYYCATYRSYVTPLDYWGRGTLVTVSSASTKGPSVFPLAPSSKSTSGGTAALGCLVADYFPEPVTVSWNSGALTSGVHTFPAVLQSSGLYSLSSVVTVPSSSLGTQTYICNVNHKPSNTKVDERVEPKSCHHHHHHHH
light 1: RIQMTQSPSSLSASVGDRVTITCKASQDVSIGVAWYQDKPGKAPKLLIYSASYRYTGVPSRFSGSGSGTDFTLTISSLQPEDFATYYCQQYYIYPYTFGQGTKVEIKGQPKAAPSVTLFPPSSEELQANKATLVCYISDFYPGAVTVAWKADSSPVKAGVETTTPSKQSNNKYAAWSYLSLTPEQWKSHRSYSCQVTHEGSTVEKTVAPTEC
light 2: DIQMTQSPSSLSASVGDRVTITCSASSSVTYMYWYQRKPGKAPKLLIYDTSNLASGVPSRFSGSGSGTDYTFTISSLQPEDIATYYCQQWSSHIFTFGQGTKVEIKRTVAAPSVFIFPPSKEQLKSGTASVVCLLNNFYPREAKVQWKVDNALQSGNSQESVTEQDSKDSTYSLSSTLTLSKADYEKHKVYACEVTHQGLSSPVTKSFNRGEC
light 3: DIQMTQSPSSLSASVGDRVTITCKSSQSLLYTSSQKNYLAWYQQKPGDAPKLLIYWASTRESGVPSRFSGSGSGTDFTLTISSLQPEDFATYYCQQYYAYPWTFGQGTKVEIKRTVAAPSVFIFPPSDKQLKSGTARVVCLLNNFYPREAKVQWKVDNALQSGNSQESVTEQDSKDSTYSLISTLTLSKADYEKHKVYACEVTHQGLSSPVTKSFNRGEC
notes: Tandem Fab trispecific antibody without Fc

Kd [1]: 10000 pM | koff [1]: 0.0058 s⁻¹ | kon [1]: 560000 M⁻¹ s⁻¹ | Kd [2]: 700 pM | koff [2]: 0.00021 s⁻¹ | kon [2]: 300000 M⁻¹ s⁻¹ | Kd [3]: 540 pM | koff [3]: 0.00014 s⁻¹ | kon [3]: 260000 M⁻¹ s⁻¹
B2: HER-2 X EGFR X cMet TsAb_HHL (other)
heavy: EVQLVESGGGLVQPGGSLRLSCAASGFTFTDYTMDWVRKAPGKGLEWVADVNPNSGGSIYNQEFKGRFTLSVDRSKNTLYLQMNSLRAEDTAVYYCARNLGPSFYFDYWGQGTLVTVSSASTKGPSVFPLAPSSKSTSGGTAALGCLVKDYFPEPVTVSWNSGALTSGVATGPAVLQSSGLYSLSSVVTVPSSSLGTQTYICNVNHKPSNTKVDKKVEPKSCGGGGSGGGGSGGGGSQVQLVQSGAEVKKPGASVKVSCKASGYTFTSHWMHWVRYAPGQGLEWIGEFNPSNGRTNYNEKFKSKATMTVDTSTNTAYMELSSLRSEDTAVYYCASRDYDYDGRYFDYWGQGTLVTVSSASTKGPSVFPLAPCSKSTSGGTAALGCLVKDYFPEPVTVSWNSGALTSGVHTFPAVLQSSGLYSLSSVVTVPSSSLGTQTYICNVNHKPSNTKVDKKVEPDSGGGGGSGGGGSGGGGSDIQMTQSPSSLSASVGDRVTITCKSSQSLLYTSSQKNYLAWYQQKPGDAPKLLIYWASTRESGVPSRFSGSGSGTDFTLTISSLQPEDFATYYCQQYYAYPWTFGQGTKVEIKRTVAAPSVFIFPPSDKQLKSGTARVVCLLNNFYPREAKVQWKVDNALQSGNSQESVTEQDSKDSTYSLISTLTLSKADYEKHKVYACEVTHQGLSSPVTKSFNRGECHHHHHHHH
light 1: B1 light 1
light 2: B1 light 2
chain: EVQLVESGGGLVQPGGSLRLSCAASGYTFTSYWLHWVRQAPGKGLEWVGMIDPSNSDTRFNPNFKDRFTISADTSKNTAYLQMNSLRAEDTAVYYCATYRSYVTPLDYWGRGTLVTVSSASTKGPSVFPLAPSSKSTSGGTAALGCLVADYFPEPVTVSWNSGALTSGVHTFPAVLQSSGLYSLSSVVTVPSSSLGTQTYICNVNHKPSNTKVDERVEPKSC
notes: as for B1
